According to article PMC4366279 (PLoS ONE, 2015):

B1: T. brucei RNA Editing Ligase 1 (TbREL1), full length wild type [modified: [35S]-methionine labelled; [35S]-methionine labelled] [Trypanosoma brucei] / KREPA2 [modified: [35S]-methionine labelled; [35S]-methionine labelled] [Trypanosoma … (parent complex)
chain 1: YMPLPNDQSDFSPYIEIDLPSESRIQSLHKSGLAAQEWVACEKVHGTNFGIYLINQGDHEVVRFAKRSGIMDPNENFFGYHILIDEFTAQIRILNDLLKQKYGLSRVGRLVLNGELFGAKYKHPLVPKSEKWCTLPNGKKFPIAGVQIQREPFPQYSPELHFFAFDIKYSVSGAEEDFVLLGYDEFVEFSSKVPNLLYARALVRGTLDECLAFDVENFMTPLPALLGLGNYPLEGNLAEGVVIRHVRRGDPAVEKHNVSTIIKLRCSSFMELKHPGKQKELKETFIDTVRSGALRRVRGNVTVISDSMLPQVEAAANDLLLNNVSDGRLSNVLSKIGREPLLSGEVSQVDVVLMLAKDALKDFLKEVDSLVLNTTLAFRKLLITNVYFESKRLVEQKWKELMQEEAAAQSEAIPPLSPAAPTKGE
chain 2: MYRRFFRSAAVKHLGTTSAQCLMRATKYPCGAMCRNASSCHPQTLGYQQRFQSTTDKKFHCSVCKKPFRLEMAAKLHLQQAHGGDGSVEAGPGPGVEASSVNVVSTPVPSPISPVERTFVDEEERRPRRMRPTPKPLHQPDRDIPAAAMEEMLGVWDKIGLNRLEGNFVHSTMVMKVFAAPPDVSEIPLYEHVAPEGENPFDSLDHMTTGTVDATYVGHDAFAEVDLVDPFVAAPDQTLNPFRAGKVRNPFTRISPTQREVVKPLQPPQPKEEPLKAPVTPFGQLPMFGQTREPSASFAAAAVSVQAAANPNEVSSPFAAAVSSSPFVGQVASPFAPAQDVAGSPFEASPCAASSPFVTAGGQETSPFAAPSTPASFGQGSLFPPMGTGAPGFTAITETEQRQQELEHGCPTCGKKFSTFEGAAMHSKSKHGIVLESKKVKDRLNRKGVPDLPAYVPSPVDLSSTSPFGTRSAIGASWAETELIPHAQCVSNITIVGRVLDVSQASENVSHVTVFVEGERSGEEETLTLCCFGEVSQKIRGTLKRNATIFASGTLRLHPVYEASNNKYYVSPVVHVSMPTGTLAVIT

Variants of: B1
Assay: co-precipitation (pull-down) with His-tag isolation beads, [35S]-methionine labeled proteins; parent: 100; read off a plot

Row | Variant | percent of parent
1 | chain 1 YMPLPNDQSDFSPYIEIDLPSESRIQSLHKSGLAAQEWVACEKVHGTNFGIYLINQGDHEVVRFAKRSGIMDPNENFFGYHILIDEFTAQIRILNDLLKQKYGLSRVGRLVLNGELFGAKYKHPLVPKSEKWCTLPNGKKFPIAGVQIQREPFPQYSPELHFFAFDIKYSVSGAEEDFVLLGYDEFVEFSSKVPNLLYARALVRGTLDECLAFDVENFMTPLPALLGLGNYPLEGNLAEGVVIRHVRRGDPAVEKHNVSTIIKLRCSSFMELKHPGKQKELKETFIDTVRSGALRRVRGNVTVISDSMLPQVEAAANDLLLNNVSDGRLSNVLSKIGREPLLSGEVSQVDVVLMLAKDALKDFLKEVDSLVLNTTLAFRKLLITNVYFESKRLVEQKWKELMQEEAAAQSAAIPPLSPAAPTKGE [chain 1 E411A] | ~94 % of WT
2 | chain 1 YMPLPNDQSDFSPYIEIDLPSESRIQSLHKSGLAAQEWVACEKVHGTNFGIYLINQGDHEVVRFAKRSGIMDPNENFFGYHILIDEFTAQIRILNDLLKQKYGLSRVGRLVLNGELFGAKYKHPLVPKSEKWCTLPNGKKFPIAGVQIQREPFPQYSPELHFFAFDIKYSVSGAEEDFVLLGYDEFVEFSSKVPNLLYARALVRGTLDECLAFDVENFMTPLPALLGLGNYPLEGNLAEGVVIRHVRRGDPAVEKHNVSTIIKLRCSSFMELKHPGKQKELKETFIDTVRSGALRRVRGNVTVISDSMLPQVEAAANDLLLNNVSDGRLSNVLSKIGREPLLSGEVSQVDVVLMLAKDALADFLKEVDSLVLNTTLAFRKLLITNVYFESKRLVEQKWKELMQEEAAAQSEAIPPLSPAAPTKGE [chain 1 K361A] | ~67 % of WT
3 | chain 1 YMPLPNDQSDFSPYIEIDLPSESRIQSLHKSGLAAQEWVACEKVHGTNFGIYLINQGDHEVVRFAKRSGIMDPNENFFGYHILIDEFTAQIRILNDLLKQKYGLSRVGRLVLNGELFGAKYKHPLVPKSEKWCTLPNGKKFPIAGVQIQREPFPQYSPELAFFAFDIKYSVSGAEEDFVLLGYDEFVEFSSKVPNLLYARALVRGTLDECLAFDVENFMTPLPALLGLGNYPLEGNLAEGVVIRHVRRGDPAVEKHNVSTIIKLRCSSFMELKHPGKQKELKETFIDTVRSGALRRVRGNVTVISDSMLPQVEAAANDLLLNNVSDGRLSNVLSKIGREPLLSGEVSQVDVVLMLAKDALKDFLKEVDSLVLNTTLAFRKLLITNVYFESKRLVEQKWKELMQEEAAAQSEAIPPLSPAAPTKGE [chain 1 H161A] | ~94 % of WT
4 | chain 1 YMPLPNDQSDFSPYIEIDLPSESRIQSLHKSGLAAQEWVACEKVHGTNFGIYLINQGDHEVVRFAKRSGIMDPNENFFGYHILIDEFTAQIRILNDLLKQKYGLSRVGRLVLNGELFGAKYKHPLVPKSEKWCTLPNGKKFPIAGVQIQREPFPQYSPELHFFAFDIKYAVSGAEEDFVLLGYDEFVEFSSKVPNLLYARALVRGTLDECLAFDVENFMTPLPALLGLGNYPLEGNLAEGVVIRHVRRGDPAVEKHNVSTIIKLRCSSFMELKHPGKQKELKETFIDTVRSGALRRVRGNVTVISDSMLPQVEAAANDLLLNNVSDGRLSNVLSKIGREPLLSGEVSQVDVVLMLAKDALKDFLKEVDSLVLNTTLAFRKLLITNVYFESKRLVEQKWKELMQEEAAAQSEAIPPLSPAAPTKGE [chain 1 S170A] | ~66 % of WT
